Test [1] addresses T1, human CD40L (human, UniProt P29965 113-261, limits assumed).
T1 sequence (looked up): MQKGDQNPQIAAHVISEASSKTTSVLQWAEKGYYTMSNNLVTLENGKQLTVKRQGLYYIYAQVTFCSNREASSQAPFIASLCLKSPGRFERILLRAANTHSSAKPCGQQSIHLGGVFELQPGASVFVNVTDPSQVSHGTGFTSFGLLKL
The experiment in a line: cell-based or functional assay.

The target in test [2] is T1, human CD40L. The experiment in a line: ELISA on plate-coated hCD40L, no HSA, detection with anti-cystatin antibody, OD 450-630 nm. On the procedure:
After a last washing step, TMB was added for the development of the experiment and the plates were read at 450 nm. The EC50 was then calculated using the interpolated non-linear four-parameters standard curve (FIG. 12C).

Test [3] deals with T1, human CD40L. As to the kind of experiment: bridging ELISA: capture on plate-coated hCD40L, HSA 10 uM, detection with anti-HSA antibody, OD 450-630 nm. On the procedure: After saturation with 5% casein/PBS buffer, the plates were washed and a dilution of Stefin A protein variant or controls was incubated with HSA at a final concentration of 10 μM for 90 minutes. Plates were then washed, and a […], anti-HSA (HRP-conjugated) (Abcam), was added for 90 minutes. After a last washing step, TMB was added for the development of the experiment and the plates were read at 450 nm. The EC50 was then calculated using the interpolated non-linear four-parameters standard curve (FIG. 12C).
In general terms: In an ELISA, binding on a coated surface is turned into a signal by an enzyme label.

The target in test [4] is T1, human CD40L. As to the kind of experiment: ELISA on plate-coated hCD40L in the presence of HSA (10 uM), detection with anti-cystatin antibody, OD 450-630 nm.
Test [5] concerns the target T1, human CD40L. As to the kind of experiment: competitive ELISA: hCD40L (1 nM) premixed with the binder and added to plate-coated rhCD40 Fc; bound hCD40L detected with biotinylated anti-hCD40L polyclonal antibody. On the procedure:
To evaluate the avidity of the different formats, a CD40L competitive ELISA was performed. Briefly, the plates were coated with rhCD40 Fc at 1 μg/ml and incubated overnight at 4° C. The plates were washed twice with 150 μl of washing buffer (PBS, Tween 20 0.1%) with a plate washer and saturated with Casein 5% (Sigma) in PBS for 90 minutes at room temperature (25±1° C.). […] The resulting solution was then mixed and added to the plates. The plates were washed 3 times as described previously. […] The plates were incubated for 90 minutes at room temperature (25±1° C.). The plates were then washed. PolyHRP-Streptavidin was then diluted in dilution buffer and added to the plates. The plates were incubated an additional 90 minutes at room temperature (25±1° C.). Plates were washed 3 times as described previously and the substrate (TMB, Pierce Thermo-Scientific) was added in the plate for 10 minutes. The reaction was stopped using an acidic solution and the plates were read at 450-630 nm and the resulting percent inhibition was calculated.

The target in test [6] is T1, human CD40L. As to the kind of experiment: cell-based or functional assay. The source holds these as a separate data set.
Test [7] concerns the target T1, human CD40L. As to the kind of experiment: cell-based or functional assay. The source holds these as a separate data set.
Test [8] addresses T1, human CD40L. The experiment in a line: BIACORE (SPR) on hCD40L, kinetic fit; immobilised partner not stated.
Test [9] deals with T1, human CD40L. As to the kind of experiment: direct binding ELISA on plate-coated hCD40L (5 ug/ml), detection biotinylated anti-cystatin A antibody + polyHRP-streptavidin, OD 450-630 nm. As to the method:
(§1) Plates were washed 2 times with 150 μl of washing buffer (PBS, Tween 20 0.1%) with a plate washer and saturated with Casein 5% (Sigma) in PBS for 90 minutes at room temperature (25±1° C.). For binding, each DAW01 clone and rhCD40 Fc were added to the plate, starting from 1 μM, 1 in 3 and 300 nM, 1 in 3 respectively. Plates were washed 3 times as described previously. […] Then, cystatin A biotinylated polyclonal antibody (BAF1407) was diluted to a concentration of 0.05 μg/ml in dilution buffer (PBS, 1% casein, 0.01% Tween 20) and the plate was incubated for 90 minutes at room temperature (25±1° C.). PolyHRP-streptavidin was then diluted in dilution buffer and the plates were incubated for 90 minutes at room temperature (25±1° C.). The plates were then washed 3 times as described previously, and the substrate (TMB, Pierce Thermo-Scientific) was added to the plates for 10 minutes. The reaction was stopped using an acidic solution, and plates were read at 450-630 nm.

Test [10] addresses T2, human CD40L expressed on HEK293 cells (human, UniProt P29965 1-261).
T2 construct: whole, on cells; also called hCD40L-HEK293 cells; hCD40L-HEK-293 cells (Crown Biosciences, C2041)
T2 sequence (looked up): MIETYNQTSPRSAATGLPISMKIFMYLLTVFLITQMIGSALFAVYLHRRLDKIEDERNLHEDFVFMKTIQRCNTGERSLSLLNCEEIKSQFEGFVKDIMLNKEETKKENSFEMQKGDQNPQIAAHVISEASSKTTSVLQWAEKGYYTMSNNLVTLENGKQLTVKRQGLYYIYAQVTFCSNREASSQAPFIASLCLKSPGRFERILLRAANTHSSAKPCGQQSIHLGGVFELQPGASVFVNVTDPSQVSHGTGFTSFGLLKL
As to the kind of experiment: flow cytometry, clone at 1 uM on hCD40L-HEK293 cells (hatched), HEK-293 negative cells as control (open), detection anti-Cystatin A + A488 anti-goat. On the procedure: The cells were resuspended in PBS and 200,000 cells per well were dispatched in a round bottom 96 well plate. Cells were washed with PBS. The stefin A protein variant and controls were diluted in staining buffer containing 1% BSA, 0.01% Sodium Azide (NaN3), 2 mM EDTA in DPBS in duplicate and added on cells for staining for approximately 60 min at 4±1° c. Cells were washed and the secondary anti-Cystatin A (R&D, AF1407) was diluted 0.2 mg/ml in staining buffer and added on cells for staining for approximately 45 min at 4±1° c. Cells were washed again and the detection antibody A488 anti-goat (ThermoFisher, A21467) was diluted 1:500 in staining buffer and added to the cells for staining (approximately 30 min at 4±1° C.). Finally, the cells were washed and live and dead cells were stained using L/D stain Zombie Yellow (Biolegend, 423103) diluted in staining buffer for 10 min at 4±1° C. Cells were washed again and fixation buffer (R&D) was added to each well for 10 min at 4±1° C. then PBS with EDTA (Lonza) was added prior reading the plate on the flow cytometer (Guava 12 HT, Millipore). Dead cells were excluded, and the fluorescent green channel (488 nm/525/30) was acquired. Results were analyzed using Incyte and data were plotted using GraphPad.
(In general: Flow cytometry measures light scatter and fluorescence of single cells or particles in a stream.)

Test [11] has as its target T1, human CD40L. As to the kind of experiment: direct binding ELISA on plate-coated hCD40L (5 ug/ml), detection biotinylated anti-cystatin A antibody + polyHRP-streptavidin, OD 450-630 nm; the table prints 268, the curve legend prints Clone -288 in its place. On the procedure:
as §1

Usually EC50 stands for the midpoint of the concentration-response curve. Broadly, the Kd is the concentration at which binding is half-saturated. A word on the koff: it is a measure of how fast the partners let go of each other. High values mean a short-lived complex, low ones a long-lived complex. In general, kon refers to the rate constant with which the complex forms.

B1: clone-230 XT76 (tetramer with a rigid linker and an HSA binding stefin A protein variant) (designed binder)
chain: IPGGLSEAKPATPEIQEIVDKVKPQLEEKTGETYGKLEAVQYKTQVVHYYVHYNDQGTNYYIKVRAGDNKYMHLKVFKSLWGENLFAKWEDLVLTGYQVDKNKDDELTGFAEAAAKEAAAKEAAAKEAAAKEAAAKEAAAKMIPGGLSEAKPATPEIQEIVDKVKPQLEEKTGETYGKLEAVQYKTQVVHYYVHYNDQGTNYYIKVRAGDNKYMHLKVFKSLWGENLFAKWEDLVLTGYQVDKNKDDELTGFAEAAAKEAAAKEAAAKEAAAKEAAAKEAAAKMIPGGLSEAKPATPEIQEIVDKVKPQLEEKTGETYGKLEAVQYKTQVVHYYVHYNDQGTNYYIKVRAGDNKYMHLKVFKSLWGENLFAKWEDLVLTGYQVDKNKDDELTGFAEAAAKEAAAKEAAAKEAAAKEAAAKEAAAKMIPGGLSEAKPATPEIQEIVDKVKPQLEEKTGETYGKLEAVQYKTQVVHYYVHYNDQGTNYYIKVRAGDNKYMHLKVFKSLWGENLFAKWEDLVLTGYQVDKNKDDELTGFAEAAAKEAAAKEAAAKEAAAKEAAAKEAAAKMIPRGLSEAKPATPEIQEIVDKVKPQLEEKTGETYGKLEAVQYKTQVLANFFQRRWPGSTNYYIKVRAGDNKYMHLKVFNGPWKFRNTDRGADRVLTGYQVDKNKDDELTGF
As for B1, the “IC50 (read off the curve)” value was ~2 nM in test [1] and ~3 nM in [5]. Besides, the results for the EC50 in [2], in test [3] and in test [4] were 0.07 nM, 0.8 nM and 0.1 nM, respectively.

B2: stefin A protein variant clone 230 (designed binder)
chain: MIPGGLSEAKPATPEIQEIVDKVKPQLEEKTGETYGKLEAVQYKTQVVHYYVHYNDQGTNYYIKVRAGDNKYMHLKVFKSLWGENLFAKWEDLVLTGYQVDKNKDDELTGF
With B2, the “EC50 (HEK-Blue CD40 reporter cells, SEAP, OD 640 nm, hCD40L 0.8 nM)” value in [6] is 11.6 nM. Also, the “EC50 (HEK-Blue cell-based assay, % inhibition)” value in test [7] worked out at 608 nM. In [8], the Kd came out at 8.15 nM, the koff was 0.000975 s⁻¹ and the kon amounted to 120000 M⁻¹ s⁻¹. For the same molecule, the EC50 in test [9] was determined as 0.67 nM. For the same molecule, in [10], the “% Positive” value was found to be 98.8% and the MFI is 8990 MFI.

B3: stefin A protein variant clone 247 (designed binder)
chain: MIPGGLSEAKPATPEIQEIVDKVKPQLEEKTGETYGKLEAVQYKTQVVHHAYAAVYVGTNYYIKVRAGDNKYMHLKVFKSLPYWYRKYPDEDLVLTGYQVDKNKDDELTGF
As to B3, the “EC50 (HEK-Blue CD40 reporter cells, SEAP, OD 640 nm, hCD40L 0.8 nM)” value in test [6] amounted to 101 nM. In addition, the “EC50 (HEK-Blue cell-based assay, % inhibition)” value in [7] was 1190 nM. In test [8], this molecule gave a Kd of 3.74 nM, a koff of 0.00207 s⁻¹ and a kon of 553000 M⁻¹ s⁻¹. Besides, in test [10], the “% Positive” value was determined as 98.8% and the MFI is 9890 MFI.

B4: clone-230 DS (tetramer with a rigid linker) (designed binder)
chain: IPGGLSEAKPATPEIQEIVDKVKPQLEEKTGETYGKLEAVQYKTQVVHYYVHYNDQGTNYYIKVRAGDNKYMHLKVFKSLWGENLFAKWEDLVLTGYQVDKNKDDELTGFAEAAAKEAAAKEAAAKEAAAKEAAAKEAAAKMIPGGLSEAKPATPEIQEIVDKVKPQLEEKTGETYGKLEAVQYKTQVVHYYVHYNDQGTNYYIKVRAGDNKYMHLKVFKSLWGENLFAKWEDLVLTGYQVDKNKDDELTGFAEAAAKEAAAKEAAAKEAAAKEAAAKEAAAKMIPGGLSEAKPATPEIQEIVDKVKPQLEEKTGETYGKLEAVQYKTQVVHYYVHYNDQGTNYYIKVRAGDNKYMHLKVFKSLWGENLFAKWEDLVLTGYQVDKNKDDELTGFAEAAAKEAAAKEAAAKEAAAKEAAAKEAAAKMIPGGLSEAKPATPEIQEIVDKVKPQLEEKTGETYGKLEAVQYKTQVVHYYVHYNDQGTNYYIKVRAGDNKYMHLKVFKSLWGENLFAKWEDLVLTGYQVDKNKDDELTGF
For the molecule B4, the “IC50 (read off the curve)” value in [1] is ~0.6 nM; in [5], ~2 nM.

B5: stefin A protein variant clone 268 (designed binder)
chain: MIPGGLSEAKPATPEIQEIVDKVKPQLEEKTGETYGKLEAVQYKTQVVGDSYWEYVSGTNYYIKVRAGDNKYMHLKVFKSLPYRWRPDHAEDLVLTGYQVDKNKDDELTGF
Regarding B5, in test [10], the “% Positive” value was found to be 95.7% and the MFI is 7780 MFI. Moreover, in test [11], the EC50 is 31.2 nM.

B6: clone-230 DT (trimer with a rigid linker) (designed binder)
chain: IPGGLSEAKPATPEIQEIVDKVKPQLEEKTGETYGKLEAVQYKTQVVHYYVHYNDQGTNYYIKVRAGDNKYMHLKVFKSLWGENLFAKWEDLVLTGYQVDKNKDDELTGFAEAAAKEAAAKEAAAKEAAAKEAAAKEAAAKMIPGGLSEAKPATPEIQEIVDKVKPQLEEKTGETYGKLEAVQYKTQVVHYYVHYNDQGTNYYIKVRAGDNKYMHLKVFKSLWGENLFAKWEDLVLTGYQVDKNKDDELTGFAEAAAKEAAAKEAAAKEAAAKEAAAKEAAAKMIPGGLSEAKPATPEIQEIVDKVKPQLEEKTGETYGKLEAVQYKTQVVHYYVHYNDQGTNYYIKVRAGDNKYMHLKVFKSLWGENLFAKWEDLVLTGYQVDKNKDDELTGF
Take B6: the “IC50 (read off the curve)” value in test [1] was ~2 nM; in test [5] it was ~4 nM.
